The target of the assay is panel of 118 tier 2,3 viruses. The experiment in a line: cell-based or functional assay.

B1: N60-B1.1 (antibody, V domains shown)
VH: QLQLQESGPGLVKPSGTLSLTCSVSGGSMNGRNIYWAWIRQTPGKGLEWIGSVDVSDEDAGRTFYKWPIKSRASISADTSKNQFSLKLSSVTVADTGVYYCARETLYYVGNGYYYPLDVFYYNYYMDVWGKGTTVSVSSASTKG
VL: not shown
In turn, B1 registered a % of neutralized viruses of 40.2%; a Median IC50 (ug/ml), neutralization of 0.37 µg/mL; an average IC50, neutralization (TZM-bl assay) of 0.44 µg/mL.

Values taken from patent publication US20150299268A1.
